In US20120259096A1 one finds Nav1.7 inhibition (%), automated patch clamp on HEK cells, antibody and inhibition of Nav1.7 currents, automated patch clamp on HEK cells, antibody data, which are given here for 2 molecules.

In test [1] the target is human Nav1.7 channel (type IX voltage-gated sodium channel alpha subunit) (human) (UniProt Q15858). Nature of the test: cell-based or functional assay.
The target of test [2] is recombinant rat Nav1.7 channels expressed in HEK cells (rat) (UniProt O08562). Nature of the test: cell-based or functional assay.
Sequence of recombinant rat Nav1.7 channels expressed in HEK cells (rat) (O08562 whole entry): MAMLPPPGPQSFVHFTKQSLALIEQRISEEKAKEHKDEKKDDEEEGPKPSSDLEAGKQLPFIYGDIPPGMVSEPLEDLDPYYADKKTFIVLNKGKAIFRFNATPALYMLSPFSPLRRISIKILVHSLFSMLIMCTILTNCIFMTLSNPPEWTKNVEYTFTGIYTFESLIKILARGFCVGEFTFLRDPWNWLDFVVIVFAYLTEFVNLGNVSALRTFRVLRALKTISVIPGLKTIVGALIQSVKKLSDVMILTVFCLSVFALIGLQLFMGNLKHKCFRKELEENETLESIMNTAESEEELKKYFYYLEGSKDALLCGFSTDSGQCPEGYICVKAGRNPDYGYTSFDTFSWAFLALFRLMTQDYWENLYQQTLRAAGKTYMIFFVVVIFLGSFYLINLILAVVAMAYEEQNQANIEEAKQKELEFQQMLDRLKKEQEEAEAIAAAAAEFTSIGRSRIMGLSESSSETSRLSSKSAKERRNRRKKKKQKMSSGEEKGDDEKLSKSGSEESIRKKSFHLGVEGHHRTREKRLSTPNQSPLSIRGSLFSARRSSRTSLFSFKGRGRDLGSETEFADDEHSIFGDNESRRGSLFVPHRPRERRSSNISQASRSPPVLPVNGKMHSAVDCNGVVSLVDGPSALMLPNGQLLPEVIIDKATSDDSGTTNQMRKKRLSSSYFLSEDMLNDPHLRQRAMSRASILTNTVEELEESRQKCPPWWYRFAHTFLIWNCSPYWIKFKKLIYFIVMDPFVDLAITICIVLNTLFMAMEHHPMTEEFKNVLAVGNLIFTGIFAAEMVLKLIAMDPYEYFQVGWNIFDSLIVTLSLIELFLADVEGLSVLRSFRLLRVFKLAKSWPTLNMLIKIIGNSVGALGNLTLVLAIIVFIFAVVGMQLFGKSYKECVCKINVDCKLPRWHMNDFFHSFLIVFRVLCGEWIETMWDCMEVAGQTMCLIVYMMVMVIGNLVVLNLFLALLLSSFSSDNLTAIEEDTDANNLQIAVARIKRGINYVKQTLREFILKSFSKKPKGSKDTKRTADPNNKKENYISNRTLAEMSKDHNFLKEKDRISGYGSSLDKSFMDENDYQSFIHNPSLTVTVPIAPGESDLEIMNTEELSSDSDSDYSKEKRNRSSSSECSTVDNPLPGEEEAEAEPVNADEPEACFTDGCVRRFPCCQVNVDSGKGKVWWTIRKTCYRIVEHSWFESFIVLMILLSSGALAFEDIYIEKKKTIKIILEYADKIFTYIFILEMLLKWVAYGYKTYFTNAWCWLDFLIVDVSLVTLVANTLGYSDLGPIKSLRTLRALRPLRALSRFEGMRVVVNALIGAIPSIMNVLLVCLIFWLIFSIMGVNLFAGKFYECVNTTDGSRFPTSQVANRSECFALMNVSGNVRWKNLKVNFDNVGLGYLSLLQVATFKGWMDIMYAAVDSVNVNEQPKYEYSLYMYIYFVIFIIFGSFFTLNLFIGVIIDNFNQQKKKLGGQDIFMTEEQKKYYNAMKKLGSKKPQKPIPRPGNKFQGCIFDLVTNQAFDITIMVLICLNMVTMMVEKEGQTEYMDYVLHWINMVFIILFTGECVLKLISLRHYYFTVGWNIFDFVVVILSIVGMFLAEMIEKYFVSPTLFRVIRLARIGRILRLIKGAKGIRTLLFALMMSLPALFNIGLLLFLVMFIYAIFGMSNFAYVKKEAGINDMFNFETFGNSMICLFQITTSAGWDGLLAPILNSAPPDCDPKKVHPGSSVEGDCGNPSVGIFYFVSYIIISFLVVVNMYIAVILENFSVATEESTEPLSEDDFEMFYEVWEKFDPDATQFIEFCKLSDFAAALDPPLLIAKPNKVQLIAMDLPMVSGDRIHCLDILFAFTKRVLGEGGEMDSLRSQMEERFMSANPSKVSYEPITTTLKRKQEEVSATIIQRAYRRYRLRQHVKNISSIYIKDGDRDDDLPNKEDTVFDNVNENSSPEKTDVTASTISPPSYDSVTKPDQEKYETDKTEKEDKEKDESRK

B1: CA167_00983 (antibody, from another filing, rabbit IgG1, V domains shown)
VH: QSVEESGGRLVTPGTPLTLTCTVSGFSLSNYAMSWVRQAPGKGLEWIGIIGKSGSTAYASWAKGRFTISRTSTTVDLEITSPTTEDTATYFCVRFVLLWGPGTLVTVS
VL: AQVLTQTASPVSAAVGGTVTINCQSSQSVYKNNDLAWYQQKPGQPPKLLIYYASTLASGVSSRFKGSGSGTEFTLTISDAQCDDAATYYCLGSYDCSSADCNAFGGGTKVVVK
Take B1: the Nav1.7 inhibition (%), automated patch clamp on HEK cells, antibody at 25 µg/ml in test [1] was 41%.

B2: CA167_01080 (antibody, from another filing, rabbit IgG1, V domains shown)
VH: QSLEESGGRLVTPETPLTLTCTASGIDLSKWPMTWVRQAPGKGLEWIGIIGRSGSTNYASWAKGRFTISKTSTTVDLKMTSPTTEDTATYFCARGGSYYDLWGQGTLVTVS
VL: AQVLTQTASPVSAAVGNTVTITCQSSQSVWKNNDLSWYQQKLGQPPKLLIYYASTLASGVSSRFKASGSGTQFTLTISDVQCDDAGTYYCVGSYDCSSADCNAFGGGTKVVVK
In test [1], B2 had a Nav1.7 inhibition (%), automated patch clamp on HEK cells, antibody at 25 µg/ml of 46%. Also, in test [2], the inhibition of Nav1.7 currents, automated patch clamp on HEK cells, antibody at 25 µg/ml turned out to be 26%.
